According to patent US20240376170A1 (BRIGHT PEAK THERAPEUTICS, published 2024):
Bridges are numbered along the chain shown (N, C = ends). Primed or numbered codes have the meaning given here. [ ]: non-standard residue; d: D form. Ygp(4) = Tyr with amino-capped PEG8 (O-(8x polyethylene glycol-amino)-tyrosine); Yn3(4) = Tyr with azide-capped PEG9 (O-(9x polyethylene glycol-azido)-tyrosine); Ygp = O-(8x polyethylene glycol-amino)-tyrosine (Tyr, amino-capped PEG8); Yn3 = O-(9x polyethylene glycol-azido)-tyrosine (Tyr, azide-capped PEG9); Ygp″ = O-(8x polyethylene glycol-amino)-tyrosine; Yn3″ = O-(9x polyethylene glycol-azido)-tyrosine; PEG4′ = 4x polyethylene glycol; PEG9′ = 9x polyethylene glycol; hSer = N[C@@H](CCO)C(=O)O; Nle = CCCC[C@H](N)C(=O)O

T1: IL-2 receptor βγ complex (human, UniProt P14784 27-551; P31785 23-369)
T1 sequence (looked up) 1: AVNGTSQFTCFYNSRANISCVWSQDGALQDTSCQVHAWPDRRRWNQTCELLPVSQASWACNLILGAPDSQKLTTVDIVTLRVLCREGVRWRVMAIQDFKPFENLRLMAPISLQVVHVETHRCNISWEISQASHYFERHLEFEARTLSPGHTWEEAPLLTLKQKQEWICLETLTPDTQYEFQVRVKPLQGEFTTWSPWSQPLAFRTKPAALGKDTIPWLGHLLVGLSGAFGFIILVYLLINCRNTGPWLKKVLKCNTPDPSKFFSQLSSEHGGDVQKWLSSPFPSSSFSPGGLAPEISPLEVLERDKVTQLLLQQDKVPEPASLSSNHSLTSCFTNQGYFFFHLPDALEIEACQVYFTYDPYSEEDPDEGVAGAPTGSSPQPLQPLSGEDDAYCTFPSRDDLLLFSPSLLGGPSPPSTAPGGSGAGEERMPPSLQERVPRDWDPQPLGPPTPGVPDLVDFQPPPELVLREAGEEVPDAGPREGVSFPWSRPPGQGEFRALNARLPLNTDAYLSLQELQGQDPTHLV
T1 sequence (looked up) 2: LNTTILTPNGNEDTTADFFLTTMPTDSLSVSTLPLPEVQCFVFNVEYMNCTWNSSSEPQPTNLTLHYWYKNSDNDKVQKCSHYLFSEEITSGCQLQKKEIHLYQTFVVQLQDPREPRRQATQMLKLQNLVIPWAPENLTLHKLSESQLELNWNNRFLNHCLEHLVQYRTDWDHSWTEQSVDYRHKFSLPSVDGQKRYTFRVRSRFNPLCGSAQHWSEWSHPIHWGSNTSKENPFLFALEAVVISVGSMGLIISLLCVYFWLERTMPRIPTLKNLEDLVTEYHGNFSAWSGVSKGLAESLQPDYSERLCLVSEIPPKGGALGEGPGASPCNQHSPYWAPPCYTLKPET


target: T1, IL-2 receptor βγ complex; assay: cell-based or functional assay

| Average EC50, pSTAT5 Assay (T cells) [nM] | Binder |
| --- | --- |
| 10 | CMP-157, MMP2 cleaved molecule (ligand, not fully specified (bridges); also: MMP2 cleaved, site not given here) PLGLAGAPTSSSTKKTQLQLEHLLEDLQ[Nle]ILNGINNYKNPKLTR[Nle]L[hSer][Yn3″]KF[Ygp″][Nle]PKKATELKHLQCLEEELKPLEEVL[hSer]LAQSKNFHLRPRDLISNINVIVLELKGSETTF[hSer]CEYADETATIVEFLNRWITFSQSIISTLT |
| 54.5 | CMP-157 (ligand, linker N-25 via PEG4′) PLGLAGAPTSSSTKKTQLQLEHLLEDLQ[Nle]ILNGINNYKNPKLTR[Nle]L[hSer][Yn3″]KF[Ygp″][Nle]PKKATELKHLQCLEEELKPLEEVL[hSer]LAQSKNFHLRPRDLISNINVIVLELKGSETTF[hSer]CEYADETATIVEFLNRWITFSQSIISTLT |
| 36.6 | CMP-158 (ligand, bridge N-30; not fully specified (bridges); ends not checked) GPLGLAG[PEG4′]APTSSSTKKTQLQLEHLLLDLE[Nle]ILNGINNYKNPKLTR[Nle]L[hSer][Yn3(4)]KF[Ygp(4)][Nle]PKKATELKHLQCLEEELKPLEEVL[hSer]LAQSKNFHLRPRDLISNINVIVLELKGSETTF[hSer]CEYADETATIVEFLNRWITFSQSIISTLT |
| 1.95 | CMP-158, MMP2 cleaved molecule (ligand, not fully specified; ends and bridges not checked; also: MMP2 cleaved, cleavage site and linker fragments on N-terminus and Glu22 side chain not given here) APTSSSTKKTQLQLEHLLLDLE[Nle]ILNGINNYKNPKLTR[Nle]L[hSer][Yn3(4)]KF[Ygp(4)][Nle]PKKATELKHLQCLEEELKPLEEVL[hSer]LAQSKNFHLRPRDLISNINVIVLELKGSETTF[hSer]CEYADETATIVEFLNRWITFSQSIISTLT |
| 35.5 | CMP-159 (ligand, bridge N-28; not fully specified (N-terminus, bridges); ends not checked) PLGLAGAPTSSSTKKTQLQLEHLLLDLE[Nle]ILNGINNYKNPKLTR[Nle]L[hSer][Yn3(4)]KF[Ygp(4)][Nle]PKKATELKHLQCLEEELKPLEEVL[hSer]LAQSKNFHLRPRDLISNINVIVLELKGSETTF[hSer]CEYADETATIVEFLNRWITFSQSIISTLT |

Continued, binder first:

| Binder | Average EC50, pSTAT5 Assay (T cells) [nM] |
| --- | --- |
| CMP-156 (ligand, linker N-19 via GPLGLAG‑PEG4) APTSSSTKKTQLQLEHLLEDLQ[Nle]ILNGINNYKNPKLTR[Nle]L[hSer][Yn3″]KF[Ygp″][Nle]PKKATELKHLQCLEEELKPLEEVL[hSer]LAQSKNFHLRPRDLISNINVIVLELKGSETTF[hSer]CEYADETATIVEFLNRWITFSQSIISTLT | 86 |
| CMP-152, MMP2 cleaved molecule (ligand, not fully specified (bridges); also: MMP2 cleaved, site not given here) PLGLAGAPTSSSTKKTQLQLEHLLLDLQ[Nle]ILNGINNYKNPKLTR[Nle]L[hSer][Yn3″]KF[Ygp″][Nle]PKKATELKHLQCLEEELKPLEEVL[hSer]LAQSKNFHLRPRDLISNINVIVLELKGSETTF[hSer]CEYADETATIVEFLNRWITFSQSIISTLT | 2.95 |
| CMP-155, MMP2 cleaved molecule (ligand, not fully specified; also: cleaved by MMP2, cleavage product not defined, N-terminal PEG9 link and Glu29 side-chain attachment of the cleavable peptide not defined) APTSSSTKKTQLQLEHLLLDLQ[Nle]ILNGIENYKNPKLTR[Nle]L[hSer][Yn3″]KF[Ygp″][Nle]PKKATELKHLQCLEEELKPLEEVL[hSer]LAQSKNFHLRPRDLISNINVIVLELKGSETTF[hSer]CEYADETATIVEFLNRWITFSQSIISTLT | 2.9 |
| CMP-156, MMP2 cleaved molecule (ligand, not fully specified; also: MMP2 cleaved, cleavage site and linker fragments on N-terminus and Glu19 side chain not given here) APTSSSTKKTQLQLEHLLEDLQ[Nle]ILNGINNYKNPKLTR[Nle]L[hSer][Yn3″]KF[Ygp″][Nle]PKKATELKHLQCLEEELKPLEEVL[hSer]LAQSKNFHLRPRDLISNINVIVLELKGSETTF[hSer]CEYADETATIVEFLNRWITFSQSIISTLT | 21.3 |
| CMP-139, MMP2 cleaved molecule (ligand, ends and bridges not checked; also: cleaved by MMP2, cleavage product not defined, N-terminal PEG16 link and Glu29 side-chain attachment of the cleavable peptide not defined) APTSSSTKKTQLQLEHLLLDLQ[Nle]ILNGIENYKNPKLTR[Nle]L[hSer][Yn3]KF[Ygp][Nle]PKKATELKHLQCLEEELKPLEEVL[hSer]LAQSKNFHLRPRDLISNINVIVLELKGSETTF[hSer]CEYADETATIVEFLNRWITFSQSIISTLT | 3.61 |
| CMP-152 (ligand, linker N-38 via PEG9‑glutaryl) PLGLAGAPTSSSTKKTQLQLEHLLLDLQ[Nle]ILNGINNYKNPKLTR[Nle]L[hSer][Yn3″]KF[Ygp″][Nle]PKKATELKHLQCLEEELKPLEEVL[hSer]LAQSKNFHLRPRDLISNINVIVLELKGSETTF[hSer]CEYADETATIVEFLNRWITFSQSIISTLT | 16.1 |
| CMP-155 (ligand, linker N-29 via GPLGLAG‑PEG9) APTSSSTKKTQLQLEHLLLDLQ[Nle]ILNGIENYKNPKLTR[Nle]L[hSer][Yn3″]KF[Ygp″][Nle]PKKATELKHLQCLEEELKPLEEVL[hSer]LAQSKNFHLRPRDLISNINVIVLELKGSETTF[hSer]CEYADETATIVEFLNRWITFSQSIISTLT | 10.7 |
| CMP-154 (ligand, linker N-35 via PEG9′) PLGLAGAPTSSSTKKTQLQLEHLLLDLQ[Nle]ILNGIENYKNPKLTR[Nle]L[hSer][Yn3″]KF[Ygp″][Nle]PKKATELKHLQCLEEELKPLEEVL[hSer]LAQSKNFHLRPRDLISNINVIVLELKGSETTF[hSer]CEYADETATIVEFLNRWITFSQSIISTLT | 24.7 |
| CMP-154, MMP2 cleaved molecule (ligand, not fully specified (bridges); also: MMP2 cleaved, site not given here) PLGLAGAPTSSSTKKTQLQLEHLLLDLQ[Nle]ILNGIENYKNPKLTR[Nle]L[hSer][Yn3″]KF[Ygp″][Nle]PKKATELKHLQCLEEELKPLEEVL[hSer]LAQSKNFHLRPRDLISNINVIVLELKGSETTF[hSer]CEYADETATIVEFLNRWITFSQSIISTLT | 4.2 |
